In patent US20140023585A1, “177 LUTETIUM-LABELED BOMBESIN ANALOGS FOR RADIOTHERAPY” (UNIVERSITATSSPITAL BASEL, priority 2010, published 2014):

Test: in vivo
Conditions: male, NMRI nu/nu, mouse, iv, total radioactivity; for tissue uptake at 1 h: 1.0 h p.a.; for tissue uptake at 4 h: 4.0 h p.a.; for tissue uptake at 24 h: 24.0 h p.a.; for tissue uptake at 48 h: 48.0 h p.a.; for tissue uptake at 72 h: 72.0 h p.a.
Experimental: Biodistribution was investigated in NMRI nude mice bearing subcutaneous PC-3 tumors in the right hind limb at different time-points. Body weight of the male mice was approx. 30 g, 3 animals were investigated per time-point. After injecting an intravenous dose into the tail vein, mice were sacrificed at indicated time points and dissected organs were analyzed by radioactive counting. An administration dose of 100 μL was applied per animal with a mean activity of 86 kBq.
At indicated time points urine and feces were quantitatively collected. At the same time points, animals were sacrificed and exsanguinations under isoflurane anesthesia and the following organs and tissues were removed for measurement of [^177Lu] using the gamma-counter: spleen, liver, gallbladder, kidneys, lung, femur, heart, brain, fat, thyroid, muscle, skin, blood, tail, stomach (without content), prostate, intestine (with content), pancreas, adrenals, and the remaining body (designated as carcass).
Whole organs and tissues or aliquots were weighted and measured in a gamma-counter for radioactivity. In order to get the amount of total radioactivity administered in each animal (=100%) 3 aliquots (100 μL each) of the injected solution were always measured in parallel. The results of the biodistribution and excretion are reported as percent of injected dose per gram of tissue (% ID/g) and percent of injected dose per organ (% ID), respectively. All data are given as mean value±standard deviation, which were calculated by using all animals per time and sample.

[1] = pancreas, 86 kBq per animal, % ID/g Pancreas
[2] = stomach (without content), 86 kBq per animal, % ID/g Stomach
[3] = stomach (without content), 86 kBq
[4] = tail, 86 kBq per animal, % ID/g Tail

CC(C)C[C@H](NC(=O)C[C@H](O)[C@H](CC(C)C)NC(=O)[C@H](Cc1c[nH]cn1)NC(=O)CNC(=O)[C@@H](NC(=O)[C@H](C)NC(=O)[C@H](Cc1c[nH]c2ccccc12)NC(=O)[C@H](CCC(N)=O)NC(=O)[C@@H](Cc1ccccc1)NC(=O)CN1CCC(NC(=O)CN2CCN(CC(=O)O)CCN(CC(=O)O)CCN(CC(=O)O)CC2)CC1)C(C)C)C(N)=O [compound 2, [^177Lu]-DOTA-4-amino-1-carboxymethylpiperidine-D-Phe-Gln-Trp-Ala-Val-Gly-His-Sta-Leu-NH2, metal not drawn]
tissue uptake dose at 24 h (lung, 86 kBq per animal): 0.005 %ID | tissue uptake dose at 48 h (lung, 86 kBq per animal): 0.013 %ID | tissue uptake at 1 h (lung, 86 kBq, % ID/g Lung): 0.364 %ID/g | tissue uptake at 4 h (lung, 86 kBq, % ID/g Lung): 0.083 %ID/g | tissue uptake at 24 h (lung, 86 kBq, % ID/g Lung): 0.019 %ID/g | tissue uptake at 48 h (lung, 86 kBq, % ID/g Lung): 0.048 %ID/g | tissue uptake dose at 1 h (muscle, 86 kBq per animal): 0.014 %ID | tissue uptake dose at 4 h (muscle, 86 kBq per animal): 0.003 %ID | tissue uptake at 1 h (muscle, 86 kBq, % ID/g Muscle): 0.072 %ID/g | tissue uptake at 4 h (muscle, 86 kBq, % ID/g Muscle): 0.02 %ID/g | tissue uptake dose at 1 h (organs (sum), 86 kBq): 20.1 %ID | tissue uptake dose at 4 h (organs (sum), 86 kBq): 9.64 %ID | tissue uptake dose at 24 h (organs (sum), 86 kBq): 3.64 %ID | tissue uptake dose at 48 h (organs (sum), 86 kBq): 2.09 %ID | tissue uptake dose at 72 h (organs (sum), 86 kBq): 1.37 %ID | tissue uptake at 1 h [1]: 18.7 %ID/g | tissue uptake at 4 h [1]: 5.17 %ID/g | tissue uptake at 24 h [1]: 0.579 %ID/g | tissue uptake at 48 h [1]: 0.288 %ID/g | tissue uptake at 72 h [1]: 0.206 %ID/g | tissue uptake dose at 1 h (pancreas, 86 kBq): 8.03 %ID | tissue uptake dose at 4 h (pancreas, 86 kBq): 1.74 %ID | tissue uptake dose at 24 h (pancreas, 86 kBq): 0.196 %ID | tissue uptake dose at 48 h (pancreas, 86 kBq): 0.076 %ID | tissue uptake dose at 72 h (pancreas, 86 kBq): 0.046 %ID | tissue uptake at 1 h (prostate, 86 kBq per animal, % ID/g Prostate): 0.289 %ID/g | tissue uptake dose at 1 h (prostate, 86 kBq): 0.003 %ID | tissue uptake dose at 1 h (skin, 86 kBq per animal): 1.81 %ID | tissue uptake dose at 4 h (skin, 86 kBq per animal): 0.515 %ID | tissue uptake dose at 24 h (skin, 86 kBq per animal): 0.162 %ID | tissue uptake dose at 48 h (skin, 86 kBq per animal): 0.246 %ID | tissue uptake dose at 72 h (skin, 86 kBq per animal): 0.152 %ID | tissue uptake at 72 h (skin, 86 kBq per animal, % ID/g Skin): 0.04 %ID/g | tissue uptake at 1 h (skin, 86 kBq, % ID/g Skin): 0.409 %ID/g | tissue uptake at 4 h (skin, 86 kBq, % ID/g Skin): 0.145 %ID/g | tissue uptake at 24 h (skin, 86 kBq, % ID/g Skin): 0.055 %ID/g | tissue uptake at 48 h (skin, 86 kBq, % ID/g Skin): 0.074 %ID/g | tissue uptake dose at 1 h (spleen, 86 kBq per animal): 0.034 %ID | tissue uptake dose at 4 h (spleen, 86 kBq per animal): 0.015 %ID | tissue uptake dose at 24 h (spleen, 86 kBq per animal): 0.005 %ID | tissue uptake dose at 48 h (spleen, 86 kBq per animal): 0.003 %ID | tissue uptake at 1 h (spleen, 86 kBq, % ID/g Spleen): 0.284 %ID/g | tissue uptake at 4 h (spleen, 86 kBq, % ID/g Spleen): 0.152 %ID/g | tissue uptake at 24 h (spleen, 86 kBq, % ID/g Spleen): 0.06 %ID/g | tissue uptake at 48 h (spleen, 86 kBq, % ID/g Spleen): 0.056 %ID/g | tissue uptake at 1 h [2]: 2.56 %ID/g | tissue uptake at 4 h [2]: 1.36 %ID/g | tissue uptake at 24 h [2]: 0.081 %ID/g | tissue uptake at 48 h [2]: 0.042 %ID/g | tissue uptake at 72 h [2]: 0.02 %ID/g | tissue uptake dose at 1 h [3]: 0.614 %ID | tissue uptake dose at 4 h [3]: 0.321 %ID | tissue uptake dose at 24 h [3]: 0.018 %ID | tissue uptake dose at 48 h [3]: 0.01 %ID | tissue uptake dose at 72 h [3]: 0.005 %ID | tissue uptake dose at 1 h (tail, 86 kBq per animal): 1.84 %ID | tissue uptake dose at 4 h (tail, 86 kBq per animal): 0.694 %ID | tissue uptake dose at 24 h (tail, 86 kBq per animal): 0.337 %ID | tissue uptake dose at 48 h (tail, 86 kBq per animal): 0.15 %ID | tissue uptake at 1 h [4]: 2.23 %ID/g | tissue uptake at 4 h [4]: 0.953 %ID/g | tissue uptake at 24 h [4]: 0.436 %ID/g | tissue uptake at 48 h [4]: 0.194 %ID/g | tissue uptake at 72 h [4]: 0.313 %ID/g | tissue uptake dose at 72 h (tail, 86 kBq): 0.263 %ID | tissue uptake dose at 1 h (thyroid, 86 kBq per animal): 0.006 %ID | tissue uptake at 1 h (thyroid, 86 kBq, % ID/g Thyroid): 0.185 %ID/g | tissue uptake dose at 1 h (tumor, 86 kBq per animal): 1.12 %ID | tissue uptake dose at 4 h (tumor, 86 kBq per animal): 3.07 %ID | tissue uptake dose at 24 h (tumor, 86 kBq per animal): 2.19 %ID | tissue uptake dose at 48 h (tumor, 86 kBq per animal): 1.05 %ID | tissue uptake dose at 72 h (tumor, 86 kBq per animal): 0.55 %ID | tissue uptake at 1 h (tumor, 86 kBq, % ID/g Tumor): 5.6 %ID/g | tissue uptake at 4 h (tumor, 86 kBq, % ID/g Tumor): 8.1 %ID/g | tissue uptake at 24 h (tumor, 86 kBq, % ID/g Tumor): 6.06 %ID/g | tissue uptake at 48 h (tumor, 86 kBq, % ID/g Tumor): 3.58 %ID/g | tissue uptake at 72 h (tumor, 86 kBq, % ID/g Tumor): 2.49 %ID/g | dose excreted at 1 h (urine, 86 kBq): 71.8% | dose excreted at 4 h (urine, 86 kBq): 63.1% | dose excreted at 24 h (urine, 86 kBq): 76.3% | dose excreted at 48 h (urine, 86 kBq): 74% | dose excreted at 72 h (urine, 86 kBq): 63.7%
